Reference: article PMC3787081, “The Heteromultimeric Debranching Enzyme Involved in Starch Synthesis in Arabidopsis Requires Both Isoamylase1 and Isoamylase2 Subunits for Complex Stability and Activity” (PLoS ONE, 2013)

Target: T1, ISA2-TAP (ISA2 with a C-terminal tandem affinity purification tag) (Arabidopsis, UniProt Q8L735 71-882)
T1 construct: Isoamylase 2 (ISA2) of Arabidopsis thaliana; the chloroplast transit peptide is probably removed in the plant (surmised); also called TAP-tagged ISA2; ISA2-TAP tagged protein; source: Arabidopsis isa2-1 plants transformed with 35S::ISA2-TAP, leaf extract
T1 sequence (looked up): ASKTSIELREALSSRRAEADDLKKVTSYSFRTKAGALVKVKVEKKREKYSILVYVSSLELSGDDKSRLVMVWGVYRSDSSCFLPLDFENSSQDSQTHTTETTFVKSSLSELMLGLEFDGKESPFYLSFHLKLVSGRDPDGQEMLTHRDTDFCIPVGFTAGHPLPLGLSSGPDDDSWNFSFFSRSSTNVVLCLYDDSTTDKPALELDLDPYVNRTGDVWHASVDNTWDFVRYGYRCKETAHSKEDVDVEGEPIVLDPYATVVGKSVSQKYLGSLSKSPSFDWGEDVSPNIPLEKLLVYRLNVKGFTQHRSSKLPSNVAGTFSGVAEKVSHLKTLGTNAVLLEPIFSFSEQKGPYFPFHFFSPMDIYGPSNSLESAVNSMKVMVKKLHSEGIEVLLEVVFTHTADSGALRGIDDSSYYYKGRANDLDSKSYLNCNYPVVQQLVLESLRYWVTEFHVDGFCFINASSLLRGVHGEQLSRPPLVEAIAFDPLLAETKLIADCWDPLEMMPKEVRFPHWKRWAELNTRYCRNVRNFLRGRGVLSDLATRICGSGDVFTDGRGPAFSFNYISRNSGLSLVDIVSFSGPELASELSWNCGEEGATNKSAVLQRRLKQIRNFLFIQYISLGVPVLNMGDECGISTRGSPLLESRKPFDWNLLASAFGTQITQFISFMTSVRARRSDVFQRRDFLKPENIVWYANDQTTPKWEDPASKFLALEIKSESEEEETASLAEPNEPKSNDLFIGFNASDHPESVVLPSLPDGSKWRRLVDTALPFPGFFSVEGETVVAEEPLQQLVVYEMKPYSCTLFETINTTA
Experiment: affinity purification with mass spectrometry; tandem affinity purification of ISA2-TAP from leaf extracts (IgG-Sepharose, TEV elution, Calmodulin Sepharose with 2 mM CaCl2, EGTA elution); SDS-PAGE, silver stain, in-gel tryptic digestion, LC-MS/MS; wild-type extracts as control
Settings: partners not purified

- stoichiometry N: 1
B1: Isoamylase1 (ISA1), Arabidopsis, endogenous (enzyme, UniProt O04196 44-783, looked up)
chain: AKDRRSNEAENIAVVEKPLKSDRFFISDGLPSPFGPTVRDDGVNFSVYSTNSVSATICLISLSDLRQNKVTEEIQLDPSRNRTGHVWHVFLRGDFKDMLYGYRFDGKFSPEEGHYYDSSNILLDPYAKAIISRDEFGVLGPDDNCWPQMACMVPTREEEFDWEGDMHLKLPQKDLVIYEMHVRGFTRHESSKIEFPGTYQGVAEKLDHLKELGINCIELMPCHEFNELEYYSYNTILGDHRVNFWGYSTIGFFSPMIRYASASSNNFAGRAINEFKILVKEAHKRGIEVIMDVVLNHTAEGNEKGPIFSFRGVDNSVYYMLAPKGEFYNYSGCGNTFNCNHPVVRQFILDCLRYWVTEMHVDGFRFDLGSIMSRSSSLWDAANVYGADVEGDLLTTGTPISCPPVIDMISNDPILRGVKLIAEAWDAGGLYQVGMFPHWGIWSEWNGKFRDVVRQFIKGTDGFSGAFAECLCGSPNLYQGGRKPWHSINFICAHDGFTLADLVTYNNKNNLANGEENNDGENHNYSWNCGEEGDFASISVKRLRKRQMRNFFVSLMVSQGVPMIYMGDEYGHTKGGNNNTYCHDNYMNYFRWDKKEEAHSDFFRFCRILIKFRDECESLGLNDFPTAKRLQWHGLAPEIPNWSETSRFVAFSLVDSVKKEIYVAFNTSHLATLVSLPNRPGYRWEPFVDTSKPSPYDCITPDLPERETAMKQYRHFLDANVYPMLSYSSIILLLSPIKDP
notes: Isoamylase 1 (ISA1) of Arabidopsis thaliana, endogenous protein in soluble leaf extracts; Chloroplast protein; also called AtISA1; source: endogenous, Arabidopsis leaf extracts (wild type and ISA2-TAP plants)
